Biological target: the molecule itself
Experiment: SEC

B1: β-galactosidase (GLB1), endogenous in mouse brain (enzyme, mouse (endogenous in mouse brain), UniProt P23780 30-647, looked up)
chain: QRTFKLDYSRDRFLKDGQPFRYISGSIHYFRIPRFYWEDRLLKMKMAGLNAIQMYVPWNFHEPQPGQYEFSGDRDVEHFIQLAHELGLLVILRPGPYICAEWDMGGLPAWLLEKQSIVLRSSDPDYLVAVDKWLAVLLPKMKPLLYQNGGPIITVQVENEYGSYFACDYDYLRFLVHRFRYHLGNDVILFTTDGASEKMLKCGTLQDLYATVDFGTGNNITQAFLVQRKFEPKGPLINSEFYTGWLDHWGKPHSTVKTKTLATSLYNLLARGANVNLYMFIGGTNFAYWNGANTPYEPQPTSYDYDAPLSEAGDLTKKYFALREVIQMFKEVPEGPIPPSTPKFAYGKVALRKFKTVAEALGILCPNGPVKSLYPLTFTQVKQYFGYVLYRTTLPQDCSNPKPIFSSPFNGVRDRAYVSVDGVPQGILDRNLMTALNIRGKAGATLDILVENMGRVNYGRFINDFKGLISNMTINSTVLTNWTVFPLNTEAMVRNHLWGREASDEGHLDGRSTSNSSDLILPTFYVGNFSIPSGIPDLPQDTFIQFPGWSKGQVWINGFNLGRYWPTMGPQKTLFVPRNILTTSAPNNITVLELEFAPCSEGTPELCTVEFVDTPVIS
  stoichiometry N: 4

Reference: publication doi:10.1101/2024.04.26.587986 (bioRxiv, 2024)
